Values joined by “and” are separate entries in the source; they are usually repeats but may differ in a detail not shown here. Identical values can stand only once. Like-named read-outs stand apart in the source and are kept apart here.

In assay [1] the target is T1, Transmembrane domain peptide of AM2 (TM-AM2), wild type (influenza A virus (strain not stated)). In words: native MS.
The target of assay [2] is T1, Transmembrane domain peptide of AM2 …. Description: native MS. The source holds these as a separate data set.

As usually defined, the stoichiometry N is a count of units in the complex or per binding partner. Regarding SDPLVVAASIIGILHLILWIL (modifications not checked) [Transmembrane domain peptide of AM2 (TM-AM2), wild type], the stoichiometry N is 2 and 4 in assay [1]; 6 in assay [2].

Source of the values: PMC8665133.
